Earlier results, collected in US20130337579.

Molecular target: CRP (cited studies) (Escherichia coli) (UniProt P0ACJ8)
Assay: EMSA
Settings: CITED Fried 1984

CRP (cited studies) (Escherichia coli), sequence (P0ACJ8 2-210): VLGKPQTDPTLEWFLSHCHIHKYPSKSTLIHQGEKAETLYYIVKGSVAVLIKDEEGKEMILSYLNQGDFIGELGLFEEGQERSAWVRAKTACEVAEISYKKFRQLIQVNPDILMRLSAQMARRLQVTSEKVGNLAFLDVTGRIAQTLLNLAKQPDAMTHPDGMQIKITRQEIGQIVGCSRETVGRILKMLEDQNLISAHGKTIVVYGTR

lac CRP oligo (Fried 1984)
Kd (200 nM cAMP): 63 nM
Kd (5 uM cAMP): 0.84 nM
